From patent US5618790A, “Protease mediated drug delivery system” (Queen's University at Kingston, priority 1994, dated 1997) come the findings set out here.

The nature of series [1]: Toxicity after intraperitoneal injection into mice. The format is in vivo. The settings on record: intraperitoneally, dosages up to 20 mg/kg body weight. As to the method:
The porphyrin compound of Example 1 was injected intraperitoneally into mice at dosages up to 20 mg/kg body weight.

The next series deals with Clostridium perfringens. Conditions: mouse, in vivo, 20 mg/kg.
Series [2] can be described thus: Solubility of the purified compound. The format is physicochemical. From the text: The purified compound was a purple-red powder that was quite soluble in water in neutral pH, in isotonic saline for injection (U.S.P.), and in fresh heparinized human blood and plasma. Aqueous solutions were strongly fluorescent when exposed to 410 nm light.
Series [3] is described as follows: Fluorescence in heparinized whole blood and plasma. The format is in vitro ADME. The settings on record: heparinized whole blood and plasma samples; spectrophotofluorometer. As to the method: Aliquots of the porphyrin compound of Example 1 were added to heparinized whole blood and plasma samples which were then examined by spectrophotofluorometer.

Starred links: 1 amine or outer side, 2 acyl side, 3 side chain; linkers in the order of their positions; H or OH if unused. Positions of bridges follow the written chain, without caps; N, C: chain ends. Residues, ends and D or L forms follow the SMILES beside them. Chains are numbered I, II in the order given. X1 = CCC1=C(C)c2cc3[nH]c(cc4nc(cc5[nH]c(cc1n2)c(C)c5CCC(=O)[*:1])C(CCC(=O)[*:2])=C4C)c(C)c3CC

As for `CCC1=C(C)c2cc3[nH]c(cc4nc(cc5[nH]c(cc1n2)c(C)c5CCC(=O)NCC(=O)N1CCC[C@H]1C(=O)N[C@@H](CC(C)C)C(=O)NCC(=O)N1CCC[C@H]1C(=O)N[C@@H](C)C(=O)N[C@@H](CCCCN)C(=O)N[C@@H](CCCCN)C(=O)N[C@@H](CCCCN)C(=O)N[C@@H](CCCCN)C(=O)O)C(CCC(=O)NCC(=O)N1CCC[C@H]1C(=O)N[C@@H](CC(C)C)C(=O)NCC(=O)N1CCC[C@H]1C(=O)N[C@@H](C)C(=O)N[C@@H](CCCCN)C(=O)N[C@@H](CCCCN)C(=O)N[C@@H](CCCCN)C(=O)N[C@@H](CCCCN)C(=O)O)=C4C)c(C)c3CC` [porphyrin compound of Example 1, mesoporphyrin IX (Gly--Pro--Leu--Gly--Pro--Ala--Lys--Lys--Lys--Lys)2] (I: GPLGPAKKKK-OH / II: GPLGPAKKKK-OH; linker I:N-II:N via X1), the toxic effects result in series [1] is “No toxic effects were observed”. Besides, the “increase of porphyrin fluorescence relative to the background fluorescence (factor)” value with Clostridium perfringens was “three”. Also, the solubility entry in series [2] (fresh heparinized human blood and plasma) was “quite soluble”; in series [2] (isotonic saline for injection (U.S.P.)) it was “quite soluble”; in series [2] (water in neutral pH), “quite soluble”. The “effect on fluorescence intensity (stability of the collagenase sensitive peptide)” value in series [3] is listed as “No effect on fluorescence intensity”.
